# Measurements as given in patent US20230265151A1, “GIP/GLP1 CO-AGONIST COMPOUNDS” (priority 2020, published 2023).
# Residue numbers refer to the chain shown, from its start. *1 amine or outer side, *2 acyl side, *3 side chain or, on linkers, in order; H or OH if unused. Where no end group is shown, it is not given here. Side-chain parts run from the residue outwards. [ ]: non-standard residue; d: D form. The star is where a group is joined. αMePhe(2-F) = C[C@](N)(Cc1ccccc1F)C(=O)O; γGlu = O=C(O)[C@H](CCC(=O)[*:2])N[*:1]; C14 diacid = O=C(O)CCCCCCCCCCCCC(=O)*; αMeY = C[C@](N)(Cc1ccc(O)cc1)C(=O)O; αMeF = C[C@](N)(Cc1ccccc1)C(=O)O; αMeL = CC(C)C[C@](C)(N)C(=O)O; Orn = NCCC[C@H](N)C(=O)O; AEEA = NCCOCCOCC(=O)O; Aib = CC(C)(N)C(=O)O
# T1: human GIP receptor (human, UniProt P48546 22-466)
# T1 sequence (looked up): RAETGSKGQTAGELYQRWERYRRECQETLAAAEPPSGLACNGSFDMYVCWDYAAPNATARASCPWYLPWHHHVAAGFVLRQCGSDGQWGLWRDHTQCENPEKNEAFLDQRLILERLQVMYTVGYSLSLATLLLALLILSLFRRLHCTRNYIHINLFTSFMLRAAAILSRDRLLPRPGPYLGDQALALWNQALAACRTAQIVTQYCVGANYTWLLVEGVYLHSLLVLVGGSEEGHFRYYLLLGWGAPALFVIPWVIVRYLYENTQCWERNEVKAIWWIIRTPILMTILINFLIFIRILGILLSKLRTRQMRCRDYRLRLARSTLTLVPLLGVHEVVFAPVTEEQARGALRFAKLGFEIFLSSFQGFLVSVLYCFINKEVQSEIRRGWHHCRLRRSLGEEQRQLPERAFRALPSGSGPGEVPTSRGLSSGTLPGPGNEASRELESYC
# B1: Example 135 (peptide)
# peptide: YXEGTXTSDXSIXLDXKAQXEFIXXLIEGGPSSGAPPPSK
# modifications: Aib2, αMeF(2F)6, 4Pal10, αMeL13, Orn16, Aib20, D-Glu24, αMeY25, K17 and K40: K(AEEA2-(γ-Glu)-(4-(4-tert-butylphenyl)butanoyl)), C-terminal NH2
# B2: Example 113 (peptide)
# peptide: YXEGTXTSDXXIXLDXKAQXEFIKXLIEGGPSSGAPPPS
# modifications: Aib2, αMeF(2F)6, 4Pal10, Aib11, αMeL13, Orn16, Aib20, αMeY25, K17 and K24: K(AEEA2-(γ-Glu)-CO-(CH2)12-CO2H), C-terminal NH2
# B3: Example 129 (peptide)
# peptide: B2 peptide with X11S, K24X, E28K
# modifications: Aib2, αMeF(2F)6, 4Pal10, αMeL13, Orn16, Aib20, D-Glu24, αMeY25, K17 and K28: K(AEEA2-(γ-Glu)-(10-(4-carboxyphenoxy)decanoyl)), C-terminal NH2
# B4: Example 139 (peptide)
# peptide: B2 peptide with X11S, K24X, E28K
# modifications: Aib2, αMeF(2F)6, 4Pal10, αMeL13, Orn16, Aib20, D-Glu24, αMeY25, K17 and K28: K(AEEA2-(γ-Glu)-CO-(CH2)10-CH3), C-terminal NH2
# B5: Example 12 (peptide)
# peptide: B2 peptide with X11S, K24X, P31K
# modifications: Aib2, αMeF(2F)6, 4Pal10, αMeL13, Orn16, Aib20, D-Glu24, αMeY25, K17 and K31: K(AEEA-(γ-Glu)-(10-(4-carboxyphenoxy)decanoyl)), C-terminal NH2
# B6: Example 114 (peptide)
# peptide: B2 peptide with X10V, X11S
# modifications: Aib2, αMeF(2F)6, αMeL13, Orn16, Aib20, αMeY25, K17 and K24: K(AEEA2-(γ-Glu)-CO-(CH2)12-CO2H), C-terminal NH2
# B7: Example 128 (peptide)
# peptide: B2 peptide with X11S
# modifications: Aib2, αMeF(2F)6, 4Pal10, αMeL13, Orn16, Aib20, αMeY25, K17 and K24: K(AEEA2-(γ-Glu)-(10-(4-carboxyphenoxy)decanoyl)), C-terminal NH2
# B8: Example 118 (peptide)
# peptide: B2 peptide with X10V, X11S, F22X
# modifications: Aib2, αMeF(2F)6, αMeL13, Orn16, Aib20, αMeF22, αMeY25, K17 and K24: K(AEEA2-(γ-Glu)-CO-(CH2)12-CO2H), C-terminal NH2
# B9: Example 127 (peptide)
# peptide: B2 peptide with X11S, E21K, K24X
# modifications: Aib2, αMeF(2F)6, 4Pal10, αMeL13, Orn16, Aib20, D-Glu24, αMeY25, K17 and K21: K(AEEA2-(γ-Glu)-(10-(4-carboxyphenoxy)decanoyl)), C-terminal NH2
# B10: Example 120 (peptide)
# peptide: B2 peptide with X11S, F22X
# modifications: Aib2, αMeF(2F)6, Ac5c10, αMeL13, Orn16, Aib20, αMeF22, αMeY25, K17 and K24: K(AEEA2-(γ-Glu)-CO-(CH2)12-CO2H), C-terminal NH2
# B11: Example 126 (peptide)
# peptide: B2 peptide with X11S, K24X, P31K
# modifications: Aib2, αMeF(2F)6, 4Pal10, αMeL13, Orn16, Aib20, D-Glu24, αMeY25, K17 and K31: K(AEEA2-(γ-Glu)-(8-(4-carboxyphenoxy)octanoyl)), C-terminal NH2
# B12: Example 134 (peptide)
# peptide: B2 peptide with X11S, K24X, G30K
# modifications: Aib2, αMeF(2F)6, 4Pal10, αMeL13, Orn16, Aib20, D-Glu24, αMeY25, K17 and K30: K(AEEA2-(γ-Glu)-(4-(4-tert-butylphenyl)butanoyl)), C-terminal NH2
# B13: Example 136 (peptide)
# peptide: B2 peptide with X10K, X11S, K24X
# modifications: Aib2, αMeF(2F)6, αMeL13, Orn16, Aib20, D-Glu24, αMeY25, K10 and K17: K(AEEA2-(γ-Glu)-CO-(CH2)10-CH3), C-terminal NH2
# Molecular target: T1, human GIP receptor
# Assay: cell-based or functional assay
Binder,"EC50, cAMP","Emax, cAMP"
B1,0.0184 nM,92.3%
Y[Aib]EGT[αMePhe(2-F)]TSDV[Aib]I[αMeL]LD[Orn]K([AEEA-AEEA-γGlu-C14 diacid])AQ[Aib]E[αMeF]IK([AEEA-AEEA-γGlu-C14 diacid])[αMeY]LIEGGPSSGAPPPS-NH2 [Example 119],0.0863 nM,
Y[Aib]EGT[αMePhe(2-F)]TSDV[Aib]I[αMeL]LD[Orn]K([AEEA-AEEA-γGlu-C14 diacid])AQ[Aib]E[αMeF]IK([AEEA-AEEA-γGlu-C14 diacid])[αMeF]LIEGGPSSGAPPPS-NH2 [Example 123],0.101 nM,94.9%
B2,0.0331 nM,97.9%
B3,0.0248 nM,
B4,0.0108 nM,
B5,0.0127 nM,
B6,0.0613 nM,93.8%
B7,0.0232 nM,
B8,0.0547 nM,94.7%
B9,0.027 nM,
B10,0.0866 nM,
B11,0.0472 nM,
B12,0.0238 nM,
B13,0.0069 nM,97.4%

# Molecular target: human GLP-1 receptor (human, UniProt P43220 24-463)
# Assay: cell-based or functional assay
Binder,"EC50, cAMP","Emax, cAMP"
B1,0.271 nM,
Y[Aib]EGT[αMePhe(2-F)]TSDV[Aib]I[αMeL]LD[Orn]K([AEEA-AEEA-γGlu-C14 diacid])AQ[Aib]E[αMeF]IK([AEEA-AEEA-γGlu-C14 diacid])[αMeY]LIEGGPSSGAPPPS-NH2 [Example 119],0.351 nM,99.4%
Y[Aib]EGT[αMePhe(2-F)]TSDV[Aib]I[αMeL]LD[Orn]K([AEEA-AEEA-γGlu-C14 diacid])AQ[Aib]E[αMeF]IK([AEEA-AEEA-γGlu-C14 diacid])[αMeF]LIEGGPSSGAPPPS-NH2 [Example 123],0.508 nM,96.3%
B2,0.291 nM,
B3,1.28 nM,
B4,0.141 nM,111%
B5,0.423 nM,
B6,0.176 nM,91.7%
B7,0.293 nM,
B8,0.437 nM,
B9,0.762 nM,
B10,1.43 nM,
B11,1.69 nM,
B12,0.577 nM,
B13,0.0918 nM,

# Molecular target: human glucagon receptor (human, UniProt P47871 26-477)
# Assay: cell-based or functional assay
row,Binder,"EC50, cAMP"
1,B1,> 9.95 µM
2,Y[Aib]EGT[αMePhe(2-F)]TSDV[Aib]I[αMeL]LD[Orn]K([AEEA-AEEA-γGlu-C14 diacid])AQ[Aib]E[αMeF]IK([AEEA-AEEA-γGlu-C14 diacid])[αMeY]LIEGGPSSGAPPPS-NH2 [Example 119],> 9.95 µM
3,Y[Aib]EGT[αMePhe(2-F)]TSDV[Aib]I[αMeL]LD[Orn]K([AEEA-AEEA-γGlu-C14 diacid])AQ[Aib]E[αMeF]IK([AEEA-AEEA-γGlu-C14 diacid])[αMeF]LIEGGPSSGAPPPS-NH2 [Example 123],> 9.95 µM
4,B2,> 9.95 µM
5,B3,> 9.95 µM
6,B4,> 9.95 µM
7,B5,> 9.95 µM
8,B6,> 9.95 µM
9,B7,> 9.95 µM
10,B8,> 9.95 µM
11,B9,> 9.95 µM
12,B10,> 9.95 µM
13,B11,> 9.95 µM
14,B12,> 9.95 µM
15,B13,> 9.95 µM
